Data reported in the DeepSol protein solubility set.

Test: soluble on expression in E. coli; label from the status in PepcDB or PDB records

Sequence | soluble on expression in E. coli
MVEEMNNEVTEMKSFSVGDVVSGKVTKVEDKQAFVDVGFKVDGIIPISELSSLHVEKVSDVLSEGDELELKVLKVEDDELILSKRAVQAEKAWETLQAALDSGEVIEAEVADVVKGGLVVDLGVRGFIPASLVERHYVEDFSDYKGRTLRLKVVELDKEANKLILSQRAVLDEEVEAKKKEVLASLQPGDVVEGTVQRLTDFGAFVDVGGVDGLVHISQLAHHRVETPAEVVKEGDAVKVKVLSVDPDSERVSLSIKETLPGPWEQVEGTIQPGDVIEGTVKRLVSFGAFVEVAPGVEGLVHISQIANRHIGTPGEVLSEGERVQAKVLDVNISEKRISLSIRELLDDAGSNQSDREVYESTNEESSGFSLGDMIGDELKKYKLEHHHHHH | soluble
MVEKEKKDEEETRKITISVKGIRDDVYRNVSELARHTGKTIGEITNDAYRTFLGTVEGVRNVSQSFIEGAKGAIPRYIDNFKKLEITADDLKDLGQKVAFRNIDELTFKNITDEEFSKYVAFIDGVKVLKIPKTVKKTTVIKISTFVDEIIQE | not soluble
MVEVKPIIIDGHPFIAVSVQLPKTNLLAVAGEKGYIMCGALDVALLNEKLRDRGIIAGRAVGVRTIEQLLEAPLESVTVAALELGIEEGMKGREALLKMR | not soluble
MVFDPDFLNNNSEEHTNQLLNEHFGEHPNQLLKYLQHQSPEVLARVAQSVTPEIKQIISQNVQGLVGMLPAESFNVQITTDRDNLAGLLASAMMTGYFLRQMEQRMQLDHLSNQ | not soluble
MVFEGHLVGTGLKVGVVVGRFNEFITSKLLGGALDGLKRHGVEENDIDVAWVPGAFEIPLIAKKMANSGKYDAVITLGTVIRGATTHYDYVCNEVAKGVASLSLQTDIPVIFGVLTTETIEQAIERAGTKAGNKGYESAVAAIEMAHLSKHWA | not soluble
MVFGENALVLKHLGSNTKIHFNAFDALAGWKQEGLPPVEVPAAAQWKFRSKPSQQVILDYDYTFTTPYCGSEVVEKDKETVEAKANPKGEATLQWENCEDQIDLAALSLKEPILFYDEVVLYEDELADNGVSLLTVKVRVMPSSWFLLLRFWLRVDGVLMRLRETRMHYRFGEDEAPTVLRENCWREATFQSLSAKGYPVDLAVWSDPSSISQRLPVIKHTTQKLKIPSKV | not soluble
MVGGGLSTDIAGGRTMTCEFRNSRCISDDDDLIRMKEDDTETQKSEFHRKASGFFLRGSGYCRSIFRVSENLEKDWQACNRRAYMSGLVDYQSMARKAYEKLQELGISRHVTPLFAENVTVPIPGVVFLDCVVNDMTLISRIAGLVARAAFHIKNESPQHGLIEVGAPYNLVDNISYPGLIRFCGKVRNNLGNNYNIQCDIFQMCQFGARSLGSVHNTITVTVAAAAPIPNLVPRGILAPPPPPPPLPLPPVRRRAPKVLNLQKFIDAYQPVQSTGYPIGTPAAAAAVEKESAAPVVPENAEKEVAPKIAQKLELCGTPCKIKAEPEDEDIIILKHIAPNTDGGVKRVGSRNKIGKRSQKLKTRRL | not soluble
MVGWRIVRIATHPEVQGRGIGSWLLERLYEESVERGYDWLGSGFGINEQLLRFWLRNGFLVLHLSPD | not soluble
MVHYKLSYFPIRGAGEVIRQIFVYAGQSFEDHRISIEEWAAVKPTTPFGQLPLLEVDGKVLPQSHSIARFLARQFGINGKCAWEEAQVNSIADQFKDYRNEVRPYVMVKMGFAEGDLDALSKDVFLPGFKKHYGFIYNFLKTAGSGYLVGDSLTFVDLLIAQHTADILSTDPALLEEFPQFKAHQEKVHSNANIKKWLETRPETQF | not soluble
MVIRVFIASSSGFVAIKKKQQDVVRFLEANKIEFEEVDITMSEEQRQWMYKNVPPEKKPTQGNPLPPQIFNGDRYCGDYDSFFESKESNTVFSFLGLK | soluble
MVKAGKKVKGASKVRENETEEEKKIRLEMEALAADEAERKAQEAARVALRERQLREQRYAHLNGIKIHNQWRKIMRMAKVEELRREIEILSQNHEREVDRKDAIMQMLDRDLEEAEEQYSLAVRSHMLVVDNLLDLQYQRMRALEAEFAADLKALEDEFETERTEIVNAHTRQRKDMGDMIAAMEGEFADAEAELRQEYEAQREEIKNRNSEEYNVLKIQLEGIIEELEKSFELAHRAYLESTEHRTNTFRTLTKDDAKAALKIERQMRKLVRLQEALQHWRTKIATNGREWEERNRALRNEKEIMARHYAKLKSSMDAFRAGQAERLKQLSLASSGAMETLRGKLAVAENVLKLAELARKYETEQEKVLPFWNPAQAVPSGEQGDEEAAAQAEAEAAALEPSVAELGELGLRASMPEDSSKEAPGPSKSSAGPGKPKFSSYGLDPSSGSEVDEWDYLNCFFRRYNKALLDKTAIDKEKSRLERENADLRSILKQYLDGISVNDDVLNNPVNPLLVVNNRLQITLTERNKARAAAMAQRAAAATGAGLSVTGQGAGGGGQKQLVEVQVVSRVS | not soluble
MVKATAIDMSLSDIISTNRKNKKVVKKPIKKSAGGIRKRGNASNVGTPRRQSGGTSRGGGRMGNTVRRSAGGSSNDNKQVRINISNLAETVISSDLQELFGAFNLHKVSVNFNENGGAAGTGDITLKKYDADRLIQKFAGVALDGKVMHFAVIESSNFARKPEIRGTPNRRQSSGKPINRKVANPPRRQNAAKPPVKKGKKPAREQKPPKTAEQLDAELDAYMSRSA | not soluble
MVKETEYYDILGIKPEATPTEIKKAYRRKAMETHPDKHPDDPDAQAKFQAVGEAYQVLSDPGLRSKYDQFGKEDAVPQQGFEDASEYFT | not soluble
MVKIHPDLTTSGAGEETSSPYLTTEQESFTIWMKSLVFNTNGCTVFDSKGNIIYRVDNYNSKSCREVYLMDLSGHVLFTLRRQKFGLFKTWEGYRSSSATVESTTKLEYFRVKNNVFQVPNKDSSSSYRVNAGSCRNDEQYCYKMVTRGSSLAIEDNCGKLLAEVKRKQSINGLKLGDDVLTMMVESQVDHSFIIGLVLAHSLINCIL | soluble
MVKKVKGRRYEGSIEQRSKNSWRMRVTVGYDYKGTPIRADRTTRTKNERERERELRNFITELEQNGYTAPARMTFKAFVENEYMPKHAQNNLEVKTWTEYYKSIVARAYPAFGGVQMDKITTLHIVNLVAKLQKPGARLDVKPTDSDEKKNKPLSPRSIRNIYFAINSVFETAVEWKVIPINPAEGVRLPKTTKRPPTIYTPAEIELLNAALVKEPLRLQVMIYIALISGCREAELAALEVKHVNLIEDELTFEQTLVAKAGEGLLLKESTKNDVAGIVSIPAWLTNLIETYISNEVLDLKTEGKWANHKFLFADMEGKPIRPDSIYQRWKRFLERHNLPVIRFHDLRHTSATLLLNKGRDIKIIQERLRHKSSVTTSNIYAHVLKDTHKDAASDFENPF | not soluble
MVKLIHTLADHGDDVNCCAFSFSLLATCSLDKTIRLYSLRDFTELPHSPLKFHTYAVHCCCFSPSGHILASCSTDGTTVLWNTENGQMLAVMEQPSGSPVRVCQFSPDSTCLASGAADGTVVLWNAQSYKLYRCGSVKDGSLAACAFSPNGSFFVTGSSCGDLTVWDDKMRCLHSEKAHDLGITCCDFSSQPVSDGEQGLQFFRLASCGQDCQVKIWIVSFTDILARRTEHQLKQFTEDWSEEDVSTWLCAQDLKDLVGIFKMNNIDGKELLNLTKESLADDLKIESLGLRSKVLRKIEELRTKVKSLSSGIPDEFICPITRELMKDPVIASDGYSYEKEAMENWISKKKRTSPMTNLVLPSAVLTPNRTLKMAINRWLETHQK | soluble
MVKLLTINSHSWMEEDPQKKLEILGKTILENDYDVICVQEVNQLLHSEPAKDLPNYCQVAGTPAIHKDNYALQLVTFLLEQERVYYWSWAYNHIGYDRFQEGVAILSKTPLVSQGILISDVDDEHDYHTRRALLGKTKIDQEDIAIVSLHMSWWNKGFQGEWNKLERVLSNLKLPLLLMGDFNNPYENEGYQAILKSSLKLQDSHQSAKITYGKATIQKEIDGWQGNQEALKVDYVFLSSDWQVEKSEVIFDGKHYPMISDHCGLACQANLNK | not soluble
MVKNQFPLVADGIAISDPAKQMALYENEDLITNIRGYYQDKEYDDIARNEEFTAKATSRQTPSSKRFCSNDEKHHYVKEARQKAKQDLKEKRQAYLAKEMAYVPKQVSKKQQPADSSPSQKQATTEMSRFTKKLHQDNYILAELPKEYKEPKNLPQQGTTKKNNYDFLKSSQIYNNKEMRQQREKTIAQELNLSRFEDLP | not soluble
MVKQIESKTAFQEALDAAGDKLVVVDFSATWCGPCKMIKPFFHSLSEKYSNVIFLEVDVDDAQDVAPKYGIRGIPTLLLFKNGEVAATKVGALSKGQLKEFLDANLV | soluble
